Measured values: the supplement of paper PMC9170038

Legend:
Settings in all cases: FMN input: 0 or 200 uM; Eterna round: R93 (includes R88 designs)
[1] = test system: MS2 coat protein; experiment: apparent KD of MS2 coat protein, switch OFF state (with FMN for OFF switches, without FMN for ON switches); designed switch direction (-1 OFF switch, 1 ON switch): 1; higher = weaker reporter binding
Procedure, shortened: (§1)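 Titrations with SNAP-549-labelled MS2 coat protein ran in twofold steps from 0.7 or 1.5 nM to 3 µM, each step taking 0.8–1.5 h at the start and 10–20 min toward the end. The targets were designed RNA switches transcribed on-chip from Illumina sequencing clusters, held in 100 mM Tris-HCl pH 7.5, 80 mM KCl, 4 mM MgCl2, without or with constant ligand. Apparent KD was taken per design as the median of normalised cluster binding-curve fits.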

[2] = test system: MS2 coat protein; experiment: apparent KD of MS2 coat protein, switch ON state; designed switch direction (-1 OFF switch, 1 ON switch): 1; higher = weaker reporter binding
Procedure, shortened: as §1

[3] = test system: MS2 coat protein; experiment: apparent KD of MS2 coat protein, switch ON state; designed switch direction (-1 OFF switch, 1 ON switch): -1; higher = weaker reporter binding
Procedure, shortened: as §1

[4] = test system: MS2 coat protein; experiment: apparent KD of MS2 coat protein, switch OFF state (with FMN for OFF switches, without FMN for ON switches); designed switch direction (-1 OFF switch, 1 ON switch): -1; higher = weaker reporter binding
Procedure, shortened: as §1

Sequence | apparent KD of MS2 coat protein [1] | apparent KD of MS2 coat protein [2] | apparent KD of MS2 coat protein [3] | apparent KD of MS2 coat protein [4]
CGAUCACAUGAGGAUCACCCAUGUAUCGAUAAACGAGGAUAUGGGAGCGGGAUCUGUGGACCAGAAGGCGUACGGA [Celeus] | 38.7 nM | 23.4 nM | – | –
AAAGACGUGGCGUAGGAUAUACUAAUAUUCACAUGAGGAUCACCCAUGUUCAUAUAUAUGAACGAGUAGAAGGACGACGAAAAAA [SameState2 Malc#1] | 120 nM | 59.3 nM | – | –
AAUAAAAAUAGUUAGGAUAUGAGAAUUAAGACAUGAGGAUCACCCAUGUAAUUAAAACAAGUAAAUCAGAAGGGACAGGGUGAAA [JR_SS002_Sub204] | 46 nM | 99.4 nM | – | –
AACAAUCUAUCUGAGGAUAUCAUAAAAAAAACAUGAGGAUCACCCAUGUGCAGGAAAACUGCAUAUGAGAAGGCAGAUAGAUUGA [SS2: 1102] | 10.6 nM | 8.73 nM | – | –
CAUCAUGCGCCUAAGGAUAUGUCCCACAAGACAUGAGGAUCACCCAUGUAGCCAAUUAAUACGGUGCAGAAGGUGGAGCGCAUGC [Qusotior] | 1080 nM | 315 nM | – | –
CGAAAGGAGAGAGAGGAUAUCCAAAGGAAAACAUGAGGAUCACCCAUGUAGAAGGUAGGAGAUUGGGAGAAGGCUCAAGCAAAAG [salish99-ss2-155] | 26.4 nM | 29 nM | – | –
GAAAAACAUGAGGAUCACCCAUGUAGAAAUAUGGAAGGAUAUACAAAGACGAAACUGAAAGUAGAAGGUCUAAAAG [Garnet 95] | 22.1 nM | 23.2 nM | – | –
AAAAAACAUGAGGAUCACCCAUGUCGAAAGACAUGAGGAUAUGUACAGACUUCGGUCUGUACAGAAGGCAUGUCAA [SS1 - 1020] | 107 nM | 19.4 nM | – | –
GAAAAACAUGAGGAUCACCCAUGUGAGAAUAUGGGAGGAUAUACAAGGACGAGAGUCAAGGUAGAAGGCCUAAAAG [Mat - Same State 1 - Eli mod - 29] | 247 nM | 41.7 nM | – | –
AAAAACAUGGUGCAGGAUAUAUUAAUAGUCACAUGAGGAUCACCCAUGUUCAUAUAUAUGAACGAGUAGAAGGGCGAUGAAAAAA [Mat - Same state - Malcolm Mod - D110] | 541 nM | 181 nM | – | –
AAUAAACAUGAGGAUCACCCAUGUUUUAAUAGUUGAGGAUAUACGGGUGAAAAUAGCAUAGUAGAAGGCGAGUGUA [SameState1 Malc#13] | 36.8 nM | 31.2 nM | – | –
AGGAAACAUGAGGAUCACCCAUGUAAAAAUAUGGGAGGAUAUACGAAGACGAAAGAAAAAGUAGAAGGCCUAAAAG [Garnet 14] | 155 nM | 63.6 nM | – | –
GAAAAACAUGAGGAUCACCCAUGUGUAAAUAUGGGAGGAUAUACGAAGACGUAAGUCAAAGUAGAAGGCCUAAAAG [Garnet 92] | 119 nM | 24.7 nM | – | –
AAAAUACAUGAGGAUCACCCAUGUGAGAAAAACGCAGGAUAUGCCCGAAAAAAAAGGCGGGCAGAAGGGUGAAAAA [SameState1-II] | 90.4 nM | 35.5 nM | – | –
GGAAAGGAGAGAGAGGAUAUCCAAAGGAAAACAUGAGGAUCACCCAUGUAGAAGGUAGGAAAUUGGGAGAAGGCUCAAGAAAGAG [salish99-ss2-138] | 57.2 nM | 21 nM | – | –
AGGAAACAUGAGGAUCACCCAUGUAAGGAUAUGAACGAAAAUAAAUAAAAAUAAAAGUUCAGAAGGUACAAAAA [66%, Wbt, 6] | – | – | 29.8 nM | 52.7 nM
CUCAAGUUAGGAUAUCGAAGAAAAGAAGAGAAAGAAAAGAACGAGAAGGAACAUGAGGAUCACCCAUGUAAGAA [EteRNA is fun!] | – | – | 11.8 nM | 21.7 nM

Sequence | apparent KD of MS2 coat protein [1] | apparent KD of MS2 coat protein [2] | apparent KD of MS2 coat protein [3] | apparent KD of MS2 coat protein [4]
UUUACGUGAGGAUAUGCGAAUAGAACGUAAGUCAUACAGACGCAGAAGGCACAUGAGGAUCACCCAUGUGAACC [JR_Exc004_Sub312] | – | – | 20 nM | 49.8 nM
CUCAAGUUAGGAUAUCAAAGAAAAGAAGAGAAAGAAAAGAAUGAGAAGGAACAUGAGGAUCACCCAUGUAAGAA [EteRNA is fun!] | – | – | 33.4 nM | 22.4 nM
AACAUGUGAGGAUAUAUAAGAAAAGAAAAGAAAGAAAAGAAAUAGAAGGCACAUGAGGAUCACCCAUGUAAGAA [EteRNA is fun!] | – | – | 30 nM | 26.2 nM
AAAAAGGCAGGAUAUACGAAGCUAAGACAAAUAAGCAAGGGACAUGAGGAUCACCCAUGUAGAAGGGCCAAAAA [Exclusion 2-01... 60% 3] | – | – | 41.1 nM | 132 nM
AAAAACAGAGGAUAUACAAAAUGAUGACGAAAGUCAUCAAAACAUGAGGAUCACCCAUGUAGAAGGCUGAAAAA [Mod of Meechl] | – | – | 24.2 nM | 20.2 nM
AAAAAGGCAGGAUAUACAUGAGGAUCACCCAUGUUUUAAAAAAAAAAAAAAAAAAAAAGUAGAAGGGCCAAAAA [Ex 3.1] | – | – | 52.3 nM | 39.7 nM
AAACGUUGAGGAUAUACAAAAGGGUAUAAAUCAAAAAAAACACAUGAGGAUCACCCAUGUAGAAGGCAACGAAA | – | – | 128 nM | 65.6 nM
AAUGGUGGAGGAUAUACAUGAGGAUCACCCAUGUAAAUCACACAUGUGGUCAAAGCAUGUAGAAGGCCACUAAA [Ex 3May 52] | – | – | 86 nM | 84.9 nM
AAAAACUCAGGAUAUACAUGAGGAUCACCCAUGUAAAAAAAAAAAAAGGGAAAAAAAAGUAGAAGGGAGAAAAA [Semenre] | – | – | 25.5 nM | 37.2 nM
AAAAAAAGAGGAUAUACGAACAUGUCGAAAGACGUGAAGGGACAUGAGGAUCACCCAUGUAGAAGGUUUAAAAA [Mat - Exclusion 2 - JL mod - D83] | – | – | 28.5 nM | 14.6 nM
AAAAAACAUGAGGAUCACCCAUGUAAGGAUAUCUAAAAUAAAAGAAAAAUAAAGAAAAGGAGAAGGUACAUGAA [JL wbt mod 21] | – | – | 28.6 nM | 50.6 nM
AAAACACAUGAGGAUCACCCAUGUGAGGAUAUGCUAUGGAAAUAAAAAAUAAAACAUAGCAGAAGGCACAAGGA [Mat - Exclusion 1 - Eli mod - D45] | – | – | 31.1 nM | 49.1 nM
GAAGAACAUGAGGAUCACCCAUGUCAGGAUAUGCGGAAGGGAAUAAUAACUUCCGGAAGCAGAAGGGACAAGAA [Ex 1 May 49] | – | – | 32.3 nM | 60 nM
AAAAAGGUAGGAUAUACAUGAGGAUCACCCAUGUAAAAAAAUGGAGAAAAAAACAAUUGUAGAAGGGCCAAAAA [Ex3 Malc#7] | – | – | 38.8 nM | 61.6 nM
AAAAAACAUGAGGAUCACCCAUGUAAGGAUAUGCCUAAAAAAAAAAAAAAAAAAAAUGGCAGAAGGUGCAAAAA [excalibur15] | – | – | 41.6 nM | 35.4 nM
GCUUGGGAAGGAUAUACAUGAGGAUCACCCAUGUGAGAGAAAAAAGUGAGAAAGAAAAGUAGAAGGUCUUGAGG [salish99-ex3-84] | – | – | 69.5 nM | 69.4 nM
AAAGGGUCAGGAUAUGCACGAACAACAAAACAAAUAACGAUGCAGAAGGGACAUGAGGAUCACCCAUGUAUAAA [May 75] | – | – | 33.4 nM | 52.1 nM
